The record followed here is paper PMC10404699, “SAMHD1 impairs type I interferon induction through the MAVS, IKKε, and IRF7 signaling axis during viral infection” (The Journal of Biological Chemistry, 2023).

The target in the assay is T1, recombinant N-terminal His-tagged full-length SAMHD1 (human, UniProt Q9Y3Z3 1-626).
T1 construct: also called recombinant FL SAMHD1; recombinant SAMHD1
Description: pull-down; in vitro pull-down of purified recombinant proteins with an anti-SAMHD1 antibody, analyzed by immunoblot; performed as described in ref. 16. As to conditions: both partners purified.

T1 sequence (Q9Y3Z3 whole entry): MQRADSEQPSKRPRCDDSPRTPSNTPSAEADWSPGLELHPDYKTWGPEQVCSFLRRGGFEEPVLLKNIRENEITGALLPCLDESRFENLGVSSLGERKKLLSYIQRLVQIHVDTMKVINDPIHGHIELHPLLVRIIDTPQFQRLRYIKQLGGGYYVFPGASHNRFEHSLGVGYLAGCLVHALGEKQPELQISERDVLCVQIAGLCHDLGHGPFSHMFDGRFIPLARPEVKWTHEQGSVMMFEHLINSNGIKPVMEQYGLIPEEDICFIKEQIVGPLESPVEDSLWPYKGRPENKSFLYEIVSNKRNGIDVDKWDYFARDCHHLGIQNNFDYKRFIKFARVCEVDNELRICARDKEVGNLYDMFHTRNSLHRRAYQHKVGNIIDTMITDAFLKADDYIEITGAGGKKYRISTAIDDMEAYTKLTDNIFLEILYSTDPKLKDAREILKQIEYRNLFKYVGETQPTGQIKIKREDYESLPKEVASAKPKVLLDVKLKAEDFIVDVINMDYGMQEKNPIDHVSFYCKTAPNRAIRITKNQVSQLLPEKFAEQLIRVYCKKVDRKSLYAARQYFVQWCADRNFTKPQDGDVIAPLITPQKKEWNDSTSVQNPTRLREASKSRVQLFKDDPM

B1: purified His-tagged MAVS without the TM domain (aa 1-513) (domain or fragment, human, UniProt Q7Z434 1-513, looked up)
chain: MPFAEDKTYKYICRNFSNFCNVDVVEILPYLPCLTARDQDRLRATCTLSGNRDTLWHLFNTLQRRPGWVEYFIAALRGCELVDLADEVASVYQSYQPRTSDRPPDPLEPPSLPAERPGPPTPAAAHSIPYNSCREKEPSYPMPVQETQAPESPGENSEQALQTLSPRAIPRNPDGGPLESSSDLAALSPLTSSGHQEQDTELGSTHTAGATSSLTPSRGPVSPSVSFQPLARSTPRASRLPGPTGSVVSTGTSFSSSSPGLASAGAAEGKQGAESDQAEPIICSSGAEAPANSLPSKVPTTLMPVNTVALKVPANPASVSTVPSKLPTSSKPPGAVPSNALTNPAPSKLPINSTRAGMVPSKVPTSMVLTKVSASTVPTDGSSRNEETPAAPTPAGATGGSSAWLDSSSENRGLGSELSKPGVLASQVDSPFSGCFEDLAISASTSLGMGPCHGPEENEYKSEGTFGIHVAENPSIQLLEGNPGPPADPDGGPRPQADRKFQEREVPCHRPSP
notes: also called MAVS without TM; recombinant MAVS without the TM domain; source: bought: Origene (AR50771PU-N); purified from E. coli
Turning to B1, the binding result is on record as “binds”.
